Experimental data taken from the Human Domainome abundance scans (Beltran et al. 2025).
± gives the uncertainty stated by the source.

B1: Steroid hormone receptor ERR2, residues 100 to 176; numbered along this chain, O95718 (parent)
chain: KRLCLVCGDIASGYHYGVASCEACKAFFKRTIQGNIEYSCPATNECEITKRRRKSCQACRFMKCLKVGMLKEGVRLD

Variants of: B1
Experiment: abundance fitness (aPCA) (normalised: wild type 0, dead -1); higher = more abundant; growth selection in yeast, the domain comes from the species named
Details: Homo sapiens

**Q.** Which abundance fitness does the source give for KRLCLVCGDIASGYHYGGASCEACKAFFKRTIQGNIEYSCPATNECEITKRRRKSCQACRFMKCLKVGMLKEGVRLD [V18G] here?
**A.** -0.259 ± 0.066

**Q.** Which abundance fitness does the source give for KRLCLVCGDIASGYHYGAASCEACKAFFKRTIQGNIEYSCPATNECEITKRRRKSCQACRFMKCLKVGMLKEGVRLD [V18A] here?
**A.** -0.26 ± 0.072

**Q.** Which abundance fitness does the source give for KRLCLVCGDIASGYHYGCASCEACKAFFKRTIQGNIEYSCPATNECEITKRRRKSCQACRFMKCLKVGMLKEGVRLD [V18C] here?
**A.** -0.169 ± 0.076

**Q.** With KRLCLVCGDIASGYHYGEASCEACKAFFKRTIQGNIEYSCPATNECEITKRRRKSCQACRFMKCLKVGMLKEGVRLD [V18E] as the variant, how does the abundance fitness read?
**A.** -0.399 ± 0.14

**Q.** For KRLCLVCGDIASGYHYGFASCEACKAFFKRTIQGNIEYSCPATNECEITKRRRKSCQACRFMKCLKVGMLKEGVRLD [V18F], which abundance fitness is on record?
**A.** -0.428 ± 0.089

**Q.** With KRLCLVCGDIASGYHYGDASCEACKAFFKRTIQGNIEYSCPATNECEITKRRRKSCQACRFMKCLKVGMLKEGVRLD [V18D] as the variant, how does the abundance fitness read?
**A.** -0.471 ± 0.18

**Q.** Which abundance fitness does the source give for KRLCLVCGDIASGYHYHVASCEACKAFFKRTIQGNIEYSCPATNECEITKRRRKSCQACRFMKCLKVGMLKEGVRLD [G17H] here?
**A.** -0.356 ± 0.19

**Q.** Which abundance fitness does the source give for KRLCLVCGDIASGYHYPVASCEACKAFFKRTIQGNIEYSCPATNECEITKRRRKSCQACRFMKCLKVGMLKEGVRLD [G17P] here?
**A.** -0.416 ± 0.093

**Q.** Which abundance fitness does the source give for KRLCLVCGDIASGYHYRVASCEACKAFFKRTIQGNIEYSCPATNECEITKRRRKSCQACRFMKCLKVGMLKEGVRLD [G17R] here?
**A.** -0.495 ± 0.055

**Q.** For KRLCLVCGDIASGYHYVVASCEACKAFFKRTIQGNIEYSCPATNECEITKRRRKSCQACRFMKCLKVGMLKEGVRLD [G17V], which abundance fitness is on record?
**A.** -0.413 ± 0.055

**Q.** With KRLCLVCGDIASGYHYKVASCEACKAFFKRTIQGNIEYSCPATNECEITKRRRKSCQACRFMKCLKVGMLKEGVRLD [G17K] as the variant, how does the abundance fitness read?
**A.** -0.477 ± 0.092

**Q.** Which abundance fitness does the source give for KRLCLVCGDIASGYHYSVASCEACKAFFKRTIQGNIEYSCPATNECEITKRRRKSCQACRFMKCLKVGMLKEGVRLD [G17S] here?
**A.** -0.266 ± 0.056

**Q.** For KRLCLVCGDIASGYHYLVASCEACKAFFKRTIQGNIEYSCPATNECEITKRRRKSCQACRFMKCLKVGMLKEGVRLD [G17L], which abundance fitness is on record?
**A.** -0.601 ± 0.068

**Q.** For KRLCLVCGDIASGYHYQVASCEACKAFFKRTIQGNIEYSCPATNECEITKRRRKSCQACRFMKCLKVGMLKEGVRLD [G17Q], which abundance fitness is on record?
**A.** -0.748 ± 0.11

**Q.** With KRLCLVCGDIASGYHYEVASCEACKAFFKRTIQGNIEYSCPATNECEITKRRRKSCQACRFMKCLKVGMLKEGVRLD [G17E] as the variant, how does the abundance fitness read?
**A.** -0.027 ± 0.071

**Q.** With KRLCLVCGDIASGYHYWVASCEACKAFFKRTIQGNIEYSCPATNECEITKRRRKSCQACRFMKCLKVGMLKEGVRLD [G17W] as the variant, how does the abundance fitness read?
**A.** -0.359 ± 0.075

**Q.** Which abundance fitness does the source give for KRLCLVCGDIASGYHYFVASCEACKAFFKRTIQGNIEYSCPATNECEITKRRRKSCQACRFMKCLKVGMLKEGVRLD [G17F] here?
**A.** -0.551 ± 0.26

**Q.** With KRLCLVCGDIASGYHYTVASCEACKAFFKRTIQGNIEYSCPATNECEITKRRRKSCQACRFMKCLKVGMLKEGVRLD [G17T] as the variant, how does the abundance fitness read?
**A.** -0.337 ± 0.078

**Q.** With KRLCLVCGDIASGYHYDVASCEACKAFFKRTIQGNIEYSCPATNECEITKRRRKSCQACRFMKCLKVGMLKEGVRLD [G17D] as the variant, how does the abundance fitness read?
**A.** -0.091 ± 0.11

**Q.** For KRLCLVCGDIASGYHYAVASCEACKAFFKRTIQGNIEYSCPATNECEITKRRRKSCQACRFMKCLKVGMLKEGVRLD [G17A], which abundance fitness is on record?
**A.** -0.075 ± 0.045

**Q.** Which abundance fitness does the source give for KRLCLVCGDIASGYHSGVASCEACKAFFKRTIQGNIEYSCPATNECEITKRRRKSCQACRFMKCLKVGMLKEGVRLD [Y16S] here?
**A.** -0.276 ± 0.05

**Q.** For KRLCLVCGDIASGYHQGVASCEACKAFFKRTIQGNIEYSCPATNECEITKRRRKSCQACRFMKCLKVGMLKEGVRLD [Y16Q], which abundance fitness is on record?
**A.** -0.366 ± 0.078

**Q.** Which abundance fitness does the source give for KRLCLVCGDIASGYHCGVASCEACKAFFKRTIQGNIEYSCPATNECEITKRRRKSCQACRFMKCLKVGMLKEGVRLD [Y16C] here?
**A.** -0.213 ± 0.077

**Q.** With KRLCLVCGDIASGYHTGVASCEACKAFFKRTIQGNIEYSCPATNECEITKRRRKSCQACRFMKCLKVGMLKEGVRLD [Y16T] as the variant, how does the abundance fitness read?
**A.** -0.418 ± 0.059

**Q.** Which abundance fitness does the source give for KRLCLVCGDIASGYHVGVASCEACKAFFKRTIQGNIEYSCPATNECEITKRRRKSCQACRFMKCLKVGMLKEGVRLD [Y16V] here?
**A.** -0.115 ± 0.041

**Q.** With KRLCLVCGDIASGYHMGVASCEACKAFFKRTIQGNIEYSCPATNECEITKRRRKSCQACRFMKCLKVGMLKEGVRLD [Y16M] as the variant, how does the abundance fitness read?
**A.** -0.239 ± 0.074

**Q.** With KRLCLVCGDIASGYHPGVASCEACKAFFKRTIQGNIEYSCPATNECEITKRRRKSCQACRFMKCLKVGMLKEGVRLD [Y16P] as the variant, how does the abundance fitness read?
**A.** -0.355 ± 0.067

**Q.** With KRLCLVCGDIASGYHIGVASCEACKAFFKRTIQGNIEYSCPATNECEITKRRRKSCQACRFMKCLKVGMLKEGVRLD [Y16I] as the variant, how does the abundance fitness read?
**A.** -0.342 ± 0.087

**Q.** Which abundance fitness does the source give for KRLCLVCGDIASGYHLGVASCEACKAFFKRTIQGNIEYSCPATNECEITKRRRKSCQACRFMKCLKVGMLKEGVRLD [Y16L] here?
**A.** -0.332 ± 0.046

**Q.** For KRLCLVCGDIASGYHGGVASCEACKAFFKRTIQGNIEYSCPATNECEITKRRRKSCQACRFMKCLKVGMLKEGVRLD [Y16G], which abundance fitness is on record?
**A.** -0.08 ± 0.045

**Q.** For KRLCLVCGDIASGYHWGVASCEACKAFFKRTIQGNIEYSCPATNECEITKRRRKSCQACRFMKCLKVGMLKEGVRLD [Y16W], which abundance fitness is on record?
**A.** -0.103 ± 0.074

**Q.** With KRLCLVCGDIASGYHNGVASCEACKAFFKRTIQGNIEYSCPATNECEITKRRRKSCQACRFMKCLKVGMLKEGVRLD [Y16N] as the variant, how does the abundance fitness read?
**A.** -0.093 ± 0.069

**Q.** For KRLCLVCGDIASGYHDGVASCEACKAFFKRTIQGNIEYSCPATNECEITKRRRKSCQACRFMKCLKVGMLKEGVRLD [Y16D], which abundance fitness is on record?
**A.** 0.008 ± 0.054

**Q.** For KRLCLVCGDIASGYHEGVASCEACKAFFKRTIQGNIEYSCPATNECEITKRRRKSCQACRFMKCLKVGMLKEGVRLD [Y16E], which abundance fitness is on record?
**A.** -0.06 ± 0.055

**Q.** Which abundance fitness does the source give for KRLCLVCGDIASGYHHGVASCEACKAFFKRTIQGNIEYSCPATNECEITKRRRKSCQACRFMKCLKVGMLKEGVRLD [Y16H] here?
**A.** -0.378 ± 0.14

**Q.** For KRLCLVCGDIASGYHKGVASCEACKAFFKRTIQGNIEYSCPATNECEITKRRRKSCQACRFMKCLKVGMLKEGVRLD [Y16K], which abundance fitness is on record?
**A.** -0.315 ± 0.084
